For 14 molecules, binding result and Kd results are on record in patent US20230080224A1 (AGENCY FOR SCIENCE TECHNOLOGY AND RESEARCH, published 2023).

For experiment [1], the target named is T1, human ALPPL2 (recombinant protein) (human, UniProt P10696 20-503, limits assumed).
T1 construct: biotinylated where captured on streptavidin
Description: screen of rabbit B-cell clones by ELISA and FACS. The text has this: (§1) Specific clones were screened and identified by ELISA and high throughput flow cytometry (FIG. 3). Rabbit kidney cells were transfected with either truncated (for ELISA screen) or full-length (for FACS screen) ALPI and ALPPL2.
Background: ELISA stands for enzyme-linked immunosorbent assay.

Experiment [2] addresses T2, ALPI (screening and SPR/ELISA protein) (UniProt P09923 20-503, limits assumed).
T2 sequence (looked up): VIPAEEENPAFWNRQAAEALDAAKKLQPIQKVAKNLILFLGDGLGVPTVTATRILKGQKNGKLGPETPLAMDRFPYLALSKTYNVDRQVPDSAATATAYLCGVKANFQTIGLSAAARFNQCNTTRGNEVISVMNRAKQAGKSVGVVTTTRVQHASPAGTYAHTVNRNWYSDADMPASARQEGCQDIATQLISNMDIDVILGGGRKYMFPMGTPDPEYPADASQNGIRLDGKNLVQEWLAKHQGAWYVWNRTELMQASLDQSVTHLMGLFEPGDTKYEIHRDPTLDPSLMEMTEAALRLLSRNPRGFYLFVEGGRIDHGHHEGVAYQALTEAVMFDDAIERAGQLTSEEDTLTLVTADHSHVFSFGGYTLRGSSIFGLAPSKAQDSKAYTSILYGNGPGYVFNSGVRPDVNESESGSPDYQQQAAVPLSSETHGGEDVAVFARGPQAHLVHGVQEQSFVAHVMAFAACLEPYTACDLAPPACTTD
The experiment is described as follows: screen of rabbit B-cell clones by ELISA and FACS.
Excerpt: as §1

Experiment [3] addresses T3, human ALPPL2 (recombinant protein) (human, UniProt P10696 20-503).
T3 chain: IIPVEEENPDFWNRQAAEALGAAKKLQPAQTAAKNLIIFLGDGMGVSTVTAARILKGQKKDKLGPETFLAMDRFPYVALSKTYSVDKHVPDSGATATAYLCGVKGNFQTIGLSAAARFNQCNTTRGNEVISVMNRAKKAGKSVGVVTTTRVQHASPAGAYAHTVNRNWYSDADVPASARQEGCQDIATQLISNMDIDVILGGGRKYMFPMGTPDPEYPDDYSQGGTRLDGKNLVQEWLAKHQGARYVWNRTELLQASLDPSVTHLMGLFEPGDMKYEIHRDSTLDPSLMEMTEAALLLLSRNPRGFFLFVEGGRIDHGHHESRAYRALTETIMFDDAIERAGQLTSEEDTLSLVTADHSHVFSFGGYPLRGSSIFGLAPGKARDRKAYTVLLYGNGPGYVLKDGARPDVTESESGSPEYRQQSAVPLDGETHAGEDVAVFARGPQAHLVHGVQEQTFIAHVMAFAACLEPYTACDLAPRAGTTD
The experiment is described as follows: BLI; single concentration. (Biolayer interferometry detects binding as a change in optical thickness at a sensor tip.)

B1: AB1C29 (antibody, V domains shown)
VH: QEHLEESGGGLVKPEGSLTLTCTASGFSFSSSYYMCWVRQAPGKGLEWIACIYPDDGNTYYASWAKGRFTISKTSSTTVTLQMTSLTAADTATYFCARALAYYAYVDGGHSYAINDFDLWGPGTLVTVSS
VL: QVLTQTPSSVSAAVGGTVTINCQSSQSVFSNDYFSWYQQKPGQPPKLLIYDASRLASGVPSRFKGSGSGTQFTLTISGVQCDDAATYYCQGTYYSSAWYNAFGGGTEVVVK
notes: Rabbit antibody cloned from a single B cell
As usually defined, the Kd is the equilibrium constant for the complex coming apart. Take B1: the binding result in experiment [1] is reported as “binds”; in experiment [2], “no binding”. The Kd in experiment [3] stood at 0.2 nM.

B2: AB2C127 (antibody, V domains shown)
VH: QSLEESGGDLVKPGASLTLTCTASGFSFNSYYMCWVRQAPGKGLEWIACISGGSSDNTYYASWAKGRFTTSKTSSTTVTLQMTSLTAADTATYFCARDIPRSGYFGCDLWGPGTLVTVSS
VL: VVMTQTPASVSEPVGGTVTIKCQASQNIYSNLAWYQQKPGQRPKLLIYGASNLESGVPSRFKGSGSGTEYTLTISNLECADAATYYCQSTVYNSNYANTFGGGTEVVVK
notes: as for B1
For the molecule B2, the results for the binding result in experiment [1] and in experiment [2] were “binds” and “no binding”, respectively. Also, the Kd in experiment [3] came out at 1.7 nM.

B3: AB2C129 (antibody, V domains shown)
VH: QSLEESGGDLVKPGASLTLTCTASGFSFSSSYWICWVRQAPGKGLEWIACIYAGSSGDTYYASWAKGRFTISKTSSTTVTLQTTSLTAADTATYFCARAEYIDGYADYTYTTLYYFDLWGPGTPVTVSS
VL: DVVMTQTPASVSEPVGGTVTINCQASESINSWLAWYQQKPGQPPKLLIYSASTLASGVPSRFKGSGSGIEFTLTISDLECADAATYFCQSYYSFSRFAFGGGTEVVVK
notes: as for B1
For the molecule B3, the binding result in experiment [1] was “binds”; in experiment [2] it was “no binding”. Moreover, the Kd in experiment [3] worked out at 0.001 nM.

B4: AB2C133 (antibody, V domains shown)
VH: QSLEESGGDLVKPGASLTLTCTASGLDFSSSYWICWVRQAPGKGLEWIGCIKTATETTVYASWAKGRFTISKTSSTTVTLQMTSLTAADTATYLCAKTYADNGGYINLWGPGTLVTVSS
VL: LVMTQTPSSVSAAVGGTVTINCQASQNIYNNLAWYQQKPGQRPKLLIYGASNLESGVPSRFKGSGSGTEYTLTISDLECDDAATYYCQSADLTSSINVFGGGTEVVVK
notes: as for B1
For B4, the figures for the binding result in experiment [1] and in experiment [2] were “binds” and “no binding”, respectively. In addition, the Kd in experiment [3] came to 1 nM.

B5: AB2C131 (antibody, V domains shown)
VH: QSLEESGGGLVQPEGSLTLTCTASGFSFSSSYYMCWVRQAPGKGLEWIACIYAGSTFSTYYASWAKGRFTISKTSSTTVTLQMTSLTAADTATYFCARSDSYYTYGYAGYAYAIFNLWGPGTLVTVSS
VL: LVMTQTPSSVSAAVGGTVTINCQASESIYSNLAWYQQKPGQPPKLLIYLASTLASGVPSRFKGSGSGTEFTLTISDLECADAATYYCQSAYYSSSADIAFGGGTEVVVK
notes: as for B1
Turning to B5, the binding result in experiment [1] is “binds”; in experiment [2], “no binding”. In experiment [3], the Kd was 8 nM.

B6: AB1C10 (antibody, V domains shown)
VH: QSLEESGGDLVKPGASLTLTCTASGFDFSSNGMCWVRQAPGKGLEWIACIYVDSSDNTNYASWVNGRFTISRTSSTTVTLQMTSLTAADTATYFCARGYGYVGSAMDLWGQGTLVTVSS
VL: DIVMTQTPASVEAAVGGTVTIKCQASQSINNELSWYQQKPGQRPKLLIYGASTLESGVPSRFSGSGSGTEFTLTISDLECADAATYYCQSAYYSSSSSYANTFGGGTEVVVK
notes: as for B1
As for B6, the binding result is reported as “binds” in experiment [1] and “no binding” in experiment [2]. For the same molecule, in experiment [3], the Kd stood at 0.15 nM.

B7: AB1C31 (antibody, V domains shown)
VH: QSLEESGGDLVKPGASLTLTCTASGFDFSSNGMCWVRQAPGKGLEWIACIYVDSSDNTNYASWVNGRFTISRTSSTTVDLKMTSLTAADTATYFCARGYGYVGSAMDLWGQGTLVTVSS
VL: DIVMTQTPASVEAAVGGTVTIKCQASQSISNELSWYQQKPGQRPKLLIYGASTLESGVPSRFSGSGSGTEFTLTISDLECADAATYYCQSAYYSSSSSYANTFGGGTEVVVK
notes: as for B1
Take B7: the binding result in experiment [1] was “binds”; in experiment [2], “no binding”. Also, the Kd in experiment [3] is 0.4 nM.

B8: AB1C25 (antibody, V domains shown)
VH: QSLEESGGDLVKPGASLTLTCTASGFDFSSNGMCWVRQAPGKGLEWIACIYVDSSDSTYYASWVNGRFTISRTSSTTVTLQMTSLTAADTATYFCARGYGYVGSAMDLWGQGTLVTVSS
VL: DIVMTQTPASVEAAVGGTVTIKCQASQSISNELSWYQQKPGQRPKLLIYGASTLESGVPSRFSGSGSGTEFTLTISDLECADAATYYCQSAYYSSSSSYANTFGGGTEVVAA
notes: as for B1
B8: the binding result in experiment [1] is “binds”; in experiment [2], “no binding”. Also, the Kd in experiment [3] came to 1.4 nM.

B9: AB2C102 (antibody, V domains shown)
VH: QQQLEESGGDLVQPGASLTLTCTASGFSFNSNYWMCWGRQAPGKGLEWIGCILFGNTDTYYANWAKGRFTISKTSSTTVTLQMTSLTAADTATYFCARSVSGVGSAWNLWGPGTLVTVSS
VL: IVMTQTPSSKSVPVGDTVTINCQASESVYNNNHLAWYQQKPGQSPKLLIYLASILDSGVPSRFKGSGSGTQFTLTISDVVCDDAATYYCAGYKGITIDGSAFGGGTELVVK
notes: as for B1
For the molecule B9, the binding result in experiment [1] is “binds”; in experiment [2] it was “no binding”. Besides, in experiment [3], the Kd came to 0.5 nM.

B10: AB1C39 (antibody, V domains shown)
VH: QSLEESGGDLVKPGASLTLTCTASGFSFSSSYYMCWVRQAPGKGLEWIACIYAGSSGGTYYASWAKGRFTISKTSSTTVTLQMTSLTAADTATYFCARAFSYYYSDGYTGYAYGLWGPGTLVTVSS
VL: DIVMTQTPASVEAAVGGTVTIKCQASQSISSYLAWYQQKPGQPPKLLIYRASTLASGVPSRFKGSGSGTQFTLTISDLECADAATYYCQGAYYSSSSSYGFGGGTEVVVK
notes: as for B1
As for B10, the results for the binding result in experiment [1] and in experiment [2] were “binds” and “no binding”, respectively. Also, the dissociation constant Kd in experiment [3] was 2 nM.

B11: AB2C124 (antibody, V domains shown)
VH: QEQLVESGGGLVQPEGSLTLTCTASGFSFSSSYFMCWVRQAPGKGLEWIACIYTGDGNNYYASWAKGRFTISKTSSTTVTLQMTSLTAADTATYFCSRGGSYYAYGYAGYDYYPDAFDYWGPGTLVTVSS
VL: DIVMTQTPASVEVAVGGTVTIKCQASQSISSYLSWYQQKPGQPPKLLIYRASTLASGVPSRFKGSGSGTQFTLTISDLECADAATYYCQSYYYSSSGSYGFGGGTEVVVK
notes: as for B1
Regarding B11, the binding result in experiment [1] was “binds”; in experiment [2] it was “no binding”. The Kd in experiment [3] worked out at 1.6 nM.

B12: AB2C136 (antibody, V domains shown)
VH: QEQLEESGGDLVKPGASLTLTCTASGFSFNSNYYMCWVRQAPGKGLEWIACIYTGIVVPTYYASWAKGRFTISKTSSTTVTLQMTSLTAADTATYFCARDPYVGSSYIYNLWGPGTLVTVSS
VL: LVMTQTPSPVSAAVGSTVTISCQSSQSVYNNNNLAWYQQKPGQPPKLLIYSASSLASGVPSRFKGSGSGTQFTLTISGVECDDAATYYCAGYKTYSNNENAFGGGTEVVVK
notes: as for B1
On to B12, for which the figures for the binding result in experiment [1] and in experiment [2] were “binds” and “no binding”, respectively. For the same molecule, the Kd in experiment [3] was determined as 0.1 nM.

B13: AB1C12 (antibody, V domains shown)
VH: QSLEESGGDLVKPGASLTLTCTASGFSFSSSYWISWVRQAPGKGLEWIACIAIGSSGTTYYASWAKGRFTISKTSSTTVTLQMTSLTAADTATYFCARSGDGYTYVELWGPGTLVTVSS
VL: DVVMTQTPASVSEPVGGTVTIKCQASQSISSYLAWYQQKPGQPPKLLIYRASTLASGVPSRFKGSGSGTQFTLTISDLECADAATYYCQNYYDIDDSDNTFGGGTEVVVK
notes: as for B1
On to B13, for which the results for the binding result in experiment [1] and in experiment [2] were “binds” and “no binding”, respectively. In experiment [3], the Kd came out at 0.8 nM.

B14: AB1C19 (antibody, V domains shown)
VH: QSLEESGGDLVQPEGSLTLTCKASGFDFSTNIMCWVRQAPGKGLEWIACIYAGDGSTYYASWVNGRFTISKTSSTTVTLQMTSLTAADTATYFCARASTYWNYGYAGYGYYPGYFNLWGPGTLVTVSS
VL: DIVMTQTPASVEAAVGGTVTIKCQASQSIISALAWYQQKPGQPPKLLIYAASTLASGVPSRFKGSGSGTQFTLTISDLECADAATYYCQTYAYSTKSNYGSVFGGGTEVVVK
notes: as for B1
For the molecule B14, the binding result in experiment [1] is given as “binds”; in experiment [2] it was “no binding”. In addition, in experiment [3], the Kd turned out to be 1.69 nM.
